Drawing on US20260193293A1, “PEPTIDES CAPABLE OF INHIBITING PROTEIN-PROTEIN INTERACTIONS AT GABAB1A SUBUNIT AND USES THEREOF” (UNIVERSITY OF COPENHAGEN, priority 2022, published 2026), this text covers Ki for 56 molecules.

Sequences and labels used below:
B1: peptide 38 (peptide)
peptide: Ac-ETEFIAWG[Sar]TGDED-NH2
SMILES: CC[C@H](C)[C@H](NC(=O)[C@H](Cc1ccccc1)NC(=O)[C@H](CCC(=O)O)NC(=O)[C@@H](NC(=O)[C@H](CCC(=O)O)NC(C)=O)[C@@H](C)O)C(=O)N[C@@H](C)C(=O)N[C@@H](Cc1c[nH]c2ccccc12)C(=O)NCC(=O)N(C)CC(=O)N[C@H](C(=O)NCC(=O)N[C@@H](CC(=O)O)C(=O)N[C@@H](CCC(=O)O)C(=O)N[C@@H](CC(=O)O)C(N)=O)[C@@H](C)O
B2: …(N-Me-G)ADTD (peptide)
peptide: Ac-EDDSWVWWG[Sar]ADTD-NH2
SMILES: CC(=O)N[C@@H](CCC(=O)O)C(=O)N[C@@H](CC(=O)O)C(=O)N[C@@H](CC(=O)O)C(=O)N[C@@H](CO)C(=O)N[C@@H](Cc1c[nH]c2ccccc12)C(=O)N[C@H](C(=O)N[C@@H](Cc1c[nH]c2ccccc12)C(=O)N[C@@H](Cc1c[nH]c2ccccc12)C(=O)NCC(=O)N(C)CC(=O)N[C@@H](C)C(=O)N[C@@H](CC(=O)O)C(=O)N[C@H](C(=O)N[C@@H](CC(=O)O)C(N)=O)[C@@H](C)O)C(C)C

Non-standard residues stand in square brackets, D forms with d. Sar = CNCC(=O)O

In the experiment the target is Sushi domains (SD1/2) protein of GABAB1a (GB1a). Briefly: FP competition vs TAMRA AJAP-1probe.
Sushi domains (SD1/2) protein of GABAB1a (GB1a), sequence (Q9Z0U4 29-158): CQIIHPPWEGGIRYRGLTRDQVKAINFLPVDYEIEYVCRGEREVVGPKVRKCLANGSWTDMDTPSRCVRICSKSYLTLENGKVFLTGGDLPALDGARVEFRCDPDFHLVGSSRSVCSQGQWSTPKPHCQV
Ac-ETEFIAWGPHGDED-NH2 returned a Ki of 38 nM.
As to Ac-ETEFIAWYGPADTD-NH2, the Ki amounted to 182 nM.
Molecule Ac-ETEFIAWGPTGDWD-NH2 returned a Ki of 54 nM.
The same measure for Ac-PFAIVWGPTVSRED-NH2: 792 nM.
Regarding Ac-ETEFIAWGPTGDEF-NH2, the Ki is 48 nM.
Regarding Ac-FIVWGPTVSRED-NH2 (not fully specified; printed as FIVWGPTVSRED*), the Ki was determined as 503 nM.
The figure for Ac-ETEFIAWHPTGDED-NH2 is 240 nM; for Ac-ETEFIAWGPTGDYD-NH2 it is 40 nM; for Ac-DWAIVWGPTVSRED-NH2 it is 338 nM.
Take Ac-PWAIVWGPTGDED-NH2: the Ki is 222 nM.
The molecule Ac-AIVWGPTVSRED-NH2 (also: asterisk not explained) registered a Ki of 773 nM.
For the molecule Ac-ETEFIAWGPTGDFD-NH2, the Ki is 41 nM.
As for B1, the Ki was determined as 32 nM.
For the molecule Ac-ETEFIAWGPTRDED-NH2, the Ki amounted to 32 nM.
The molecule Ac-FIVWGPTVSRED-NH2 came in with a Ki of 367 nM.
The molecule Ac-ETEFIAWGPTGYED-NH2 returned a Ki of 41 nM.
For the molecule Ac-EDDSDVWWGPTGDED-NH2 [hybrid peptide X], the Ki is 62 nM.
Turning to Ac-AIVWGPTVSRED-NH2, the inhibition constant (Ki) is 683 nM.
Ac-PWAIVWGPTSSRED-NH2 had a Ki of 383 nM.
Ac-ETEFIAWGPTGDEQ-NH2 returned a Ki of 37 nM.
In turn, Ac-ETEFIAWGGADTD-NH2 [hybrid peptide Y] showed a Ki of 345 nM.
The same measure for Ac-ETEFIAWGPTGDEV-NH2: 40 nM; for Ac-ETEFIAWYGPTGDED-NH2: 195 nM; for Ac-VWAIVWGPTVSRED-NH2: 412 nM.
As for Ac-PWAIVWGPTVSDED-NH2, the Ki amounted to 327 nM.
In the case of Ac-ETEFIVWGPTGDED-NH2, the Ki was 30 nM.
The figure for Ac-ETEFIAWGPTGDPD-NH2 is 34 nM; for Ac-PWFIVWGPTVSRED-NH2 it is 461 nM.
With B2, the Ki came out at 36 nM.
Take Ac-ETEFIHWGPTGDED-NH2: the Ki came out at 24 nM.
In turn, Ac-ETEFIAWGPTGHED-NH2 had a Ki of 60 nM.
Ac-ETEFIAWGPTHDED-NH2 displayed a Ki of 30 nM.
Ac-PWVIVWGPTVSRED-NH2 showed a Ki of 302 nM.
Ac-ETEFIAWGPTVSRED-NH2 showed an inhibition constant (Ki) of 148 nM.
For the molecule Ac-DAIVWGPTVSRED-NH2 [… (SEQ ID NO: 341)], the Ki is 715 nM.
The same measure for Ac-ETEFIDWGPTGDED-NH2 [peptide 26]: 9 nM; for Ac-PDAIVWGPTVSRED-NH2: 673 nM; for Ac-ETEFIAWGPTGDDD-NH2: 27 nM.
The molecule Ac-ETEFIAWGPSGDED-NH2 had an inhibition constant Ki of 32 nM.
For Ac-ETEFIAWGPTGDEN-NH2, the Ki turned out to be 43 nM.
The same measure for Ac-PWAIDWGPTVSRED-NH2: 1300 nM.
Ac-ETEFIAWYPADTD-NH2 registered a Ki of 190 nM.
In the case of Ac-PSAIVWGPTVSRED-NH2, the Ki is 906 nM.
Regarding Ac-ETEFIAWGPTGDRD-NH2, the Ki was 54 nM.
The figure for Ac-ETEYIAWGPTGDED-NH2 is 18 nM; for Ac-ETEFIAWYPTGDED-NH2 it is 199 nM; for Ac-ETEFIAWGPFGDED-NH2 it is 40 nM.
Regarding Ac-ETEFIAWGPTGDEP-NH2, the inhibition constant Ki was determined as 41 nM.
With Ac-PWAIVWGPTDSRED-NH2, the Ki is 417 nM.
The figure for Ac-PWAIVWGPTVDRED-NH2 is 379 nM; for Ac-PWYIVWGPTVSRED-NH2 it is 336 nM; for Ac-ETEFIAWYGADTD-NH2 [peptide 37] it is 95 nM.
Take Ac-ETEFIAWGPTGDEW-NH2: the Ki was found to be 54 nM.
In turn, Ac-PHAIVWGPTVSRED-NH2 showed a Ki of 1500 nM.
Consider Ac-PWFIVWGPTVSDED-NH2, for which the Ki came out at 192 nM.
The figure for Ac-DAIVWGPTVSRED-NH2 [… (SEQ ID NO: 342)] is 208 nM.
